From article doi:10.1101/2021.06.15.448552 (bioRxiv, 2021)
Values joined by “and” are separate entries in the source; they are usually repeats but may differ in a detail not shown here. Identical values can stand only once. One block for each molecule: values may come before it.

Key:
[1] = target: borneol-type dehydrogenase SrBDH1 from Salvia rosmarinus (S. rosmarinus); experiment: cryo-EM structure
[2] = target: borneol-type dehydrogenase SrBDH1 from Salvia rosmarinus (S. rosmarinus); experiment: SEC-MALS
SEC-MALS = target: the molecule itself; experiment: SEC-MALS

stoichiometry N [1]: 4 | stoichiometry N [2]: 4
Molecule: borneol-type dehydrogenase SrBDH1 from Salvia rosmarinus (enzyme)

B1: borneol-type dehydrogenase SoBDH2 from Salvia officinalis (enzyme)
chain: MATGAANVESPQSLPLRLLGRVALVTGGSSGIGESIVLLFRKHGAKVCIADVQDNQGQRLCETLGGSSDIAFCHCDVTIEDDVKRAVDFTVDKFGTLDIMVNNAGVSGPPCPDIRDFELSAFDRVFDINVRGVFIGMKHAARIMIPAKKGSIISISSVASTMGGLGPHAYTGSKHAVLGLTKNVAAELGKHGIRVNCVSPYAVATSLALAHLPEAERTEDTWDDFRRFVADNANLQGVELTMEDVANAVVFLASDEARYVSGMNLMVDGGFTSTNHALQVFRP
stoichiometry N (SEC-MALS): 8 and 4
